Measured values as given in patent publication US20240417436A1 (BRIGHT PEAK THERAPEUTICS, published 2024).
Read-outs that look alike come from different tables or passages of the source. Bridges are numbered along the chain shown (N, C = ends). [ ]: non-standard residue; d: D form. Ygp = O-(8x polyethylene glycol-amino)-tyrosine; Yn3 = O-(9x polyethylene glycol-azido)-tyrosine; hSer = N[C@@H](CCO)C(=O)O; Nle = CCCC[C@H](N)C(=O)O

Legend:
[1] = target: T1, recombinant human IL-2 receptor beta containing a His-tag and Avi-Tag (R&D Systems #AVI10459) (human, UniProt P14784 27-239); experiment: BLI (Octet), receptor on SAX2 sensor, IL-2 as analyte; construct CMP-151, macrocyclic activatable IL-2 polypeptide
T1 construct: bought protein, held on the Octet SAX2 sensor; also called CD122; IL-2Rβ
T1 sequence (looked up): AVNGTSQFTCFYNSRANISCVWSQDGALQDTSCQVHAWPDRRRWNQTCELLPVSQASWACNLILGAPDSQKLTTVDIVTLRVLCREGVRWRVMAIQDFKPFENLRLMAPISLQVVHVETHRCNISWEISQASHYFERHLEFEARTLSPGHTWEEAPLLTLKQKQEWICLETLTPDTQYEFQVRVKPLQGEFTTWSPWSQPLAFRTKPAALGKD
Protocol: (§1) Bilayer interferometry (BLI) assays were used to measure the binding constants between activatable IL-2 polypeptides (and activated versions thereof) to IL-2 receptor subunits or receptor complexes. BLI assays were conducted on an Octet® R8 instrument. Assay plates were 96 well, polypropylene, F-bottom (chimney well), black microplates (Greiner Bio-one, Cat. No: 655209). The biosensors were Octet® SAX2 (Sartorius, Cat. No: 18-5136). The assay buffer was 1× Kinetic Buffer (Sartorius, Cat. no: 18-5136) or Phosphate Buffered Saline (PBS) that contained 0.02% (v: v) Tween 20 (Polysorbate 20) and 0.1% (w/v) bovine serum albumin (BSA). The sensor was regenerated between measurements in 10 mM glycine pH 2.7 buffer.
(§2) Sensor attached receptors were either recombinant human IL-2 receptor beta containing a His-tag and Avi-Tag™ (R&D Systems™ #AVI10459) or an Avi-Tag™ Fc with human IL-2R beta and IL-2R gamma attached (Acrobiosystems Cat. no: ACRB-ILG-H82F3-25UG). Receptors were reconstituted from lyophilized powder to 500 μg/ml in PBS. Analytes were diluted in Kinetic buffer to 300 nM, then serially diluted to lower concentrations.

[2] = target: T2, IL-2 receptor βγ complex on pan T cells (human, UniProt P14784 27-551; P31785 23-369); experiment: cell-based or functional assay
T2 sequence (looked up) 1: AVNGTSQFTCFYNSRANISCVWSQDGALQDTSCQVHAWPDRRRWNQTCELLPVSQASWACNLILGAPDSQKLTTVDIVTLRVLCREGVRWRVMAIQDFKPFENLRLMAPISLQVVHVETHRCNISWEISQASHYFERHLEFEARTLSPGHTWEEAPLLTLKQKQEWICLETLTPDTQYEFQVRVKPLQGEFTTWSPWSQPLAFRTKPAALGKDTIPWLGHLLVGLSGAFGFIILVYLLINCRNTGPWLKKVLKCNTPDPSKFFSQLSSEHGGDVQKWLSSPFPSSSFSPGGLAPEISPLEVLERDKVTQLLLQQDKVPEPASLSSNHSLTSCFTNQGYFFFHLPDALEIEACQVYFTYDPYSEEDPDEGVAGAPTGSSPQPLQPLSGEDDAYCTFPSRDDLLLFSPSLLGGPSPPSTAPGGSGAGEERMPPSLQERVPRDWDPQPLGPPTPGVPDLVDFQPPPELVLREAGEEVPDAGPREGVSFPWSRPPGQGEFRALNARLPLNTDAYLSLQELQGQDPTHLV
T2 sequence (looked up) 2: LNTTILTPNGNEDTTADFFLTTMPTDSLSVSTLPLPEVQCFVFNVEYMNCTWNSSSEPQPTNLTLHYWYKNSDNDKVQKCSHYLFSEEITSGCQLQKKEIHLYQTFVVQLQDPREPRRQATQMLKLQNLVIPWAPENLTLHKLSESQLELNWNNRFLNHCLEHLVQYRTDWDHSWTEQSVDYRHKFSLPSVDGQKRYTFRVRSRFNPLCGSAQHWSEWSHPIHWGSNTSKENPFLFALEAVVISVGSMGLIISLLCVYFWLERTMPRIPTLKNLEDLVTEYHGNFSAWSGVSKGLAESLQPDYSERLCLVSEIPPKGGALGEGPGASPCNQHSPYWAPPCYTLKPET

[3] = target: T1, recombinant human IL-2 receptor beta …; experiment: BLI (Octet), receptor on SAX2 sensor, IL-2 as analyte; construct CMP-145
Protocol: as §1, §2

[4] = target: T3, Avi-Tag Fc with human IL-2R beta and IL-2R gamma attached (Acrobiosystems ACRB-ILG-H82F3-25UG) (human, UniProt P14784 27-239; P31785 23-262); experiment: BLI (Octet), receptor on SAX2 sensor, IL-2 as analyte
T3 construct: bought heterodimer; also called CD122 CD132; CD122/CD132 complex
T3 sequence (looked up) 1: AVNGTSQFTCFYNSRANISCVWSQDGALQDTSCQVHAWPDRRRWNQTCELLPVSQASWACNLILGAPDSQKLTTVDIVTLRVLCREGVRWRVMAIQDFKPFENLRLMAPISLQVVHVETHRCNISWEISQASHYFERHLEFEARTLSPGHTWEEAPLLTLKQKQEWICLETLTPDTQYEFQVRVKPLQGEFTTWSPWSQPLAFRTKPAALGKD
T3 sequence (looked up) 2: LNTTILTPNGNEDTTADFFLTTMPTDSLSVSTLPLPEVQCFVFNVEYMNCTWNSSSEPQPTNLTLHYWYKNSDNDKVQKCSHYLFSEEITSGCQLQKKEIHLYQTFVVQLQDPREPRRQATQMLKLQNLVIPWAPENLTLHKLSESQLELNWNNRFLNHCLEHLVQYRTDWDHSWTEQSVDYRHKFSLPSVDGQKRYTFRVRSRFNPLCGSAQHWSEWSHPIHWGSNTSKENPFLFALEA
Protocol: as §1, §2

[5] = target: T1, recombinant human IL-2 receptor beta …; experiment: BLI (Octet), receptor on SAX2 sensor, IL-2 as analyte; construct CMP-168, intact (not the MMP2-treated row r13)
Protocol: as §1, §2

[6] = target: T1, recombinant human IL-2 receptor beta …; experiment: BLI (Octet), receptor on SAX2 sensor, IL-2 as analyte
Protocol: as §1, §2

[7] = target: T2, IL-2 receptor βγ complex on pan T cells; experiment: cell-based or functional assay; remark: listed apart in the source
[8] = target: human PD-1 on Jurkat T cells (PD-1/PD-L1 Blockade Bioassay) (human, UniProt Q15116 25-288); experiment: cell-based or functional assay
[9] = target: T4, recombinant Human Fc gamma RI/CD64 Protein (R&D systems, 1257-FC-050) (human, UniProt P12314 16-288); experiment: ELISA, test molecule coated, human CD64 titrated
T4 construct: also called human FcgR I (CD64); FcγRI
Protocol: FcγRI (CD64) Binding Assays—The interaction of the activatable immunocytokines with human Fc gamma receptors I (FcγRI/CD64) was measured by ELISA. Briefly, Corning high-binding half-area plates (Fisher Scientific, Reinach, Switzerland) were coated overnight at 4° C. with 25 μl of immunocytokines at […] in PBS. Plates were then washed four times with 100 μl of PBS-0.2% Tween20 (wash buffer). Plates surfaces were blocked with 25 μl of PBS1% BSA at 37° C. for 1h. Plates were then washed four times with wash buffer. Then twenty-five microliters of either recombinant Human Fc gamma RI/CD64 Protein (R&D systems, 1257-FC-050, CF) was added in serial dilutions into PBS-T-0.1% BSA and incubated at 37° C. for 2h. Plates were then washed four times with 100 μl of wash buffer. Twenty-five microliters of Streptavidin-Horseradish peroxidase (#RABHRP3, Merck, Buchs, Switzerland) diluted into PBS-T-0.1% BSA were added to each well and incubated at Room Temperature for 1h. Plates were then washed four times with wash buffer. TMB substrate reagent (#CL07, Merck, Buchs, Switzerland) were added to each well and incubated for 5 min. After 5 min, Horseradish peroxidase reaction was stopped by adding 1M H2SO4 stop solution. ELISA signal was then measured at 450 nm on a plate reader.

mouse FcRn = target: T5, mouse FcRn (mouse, UniProt Q61559 22-297; P01887 21-119, limits assumed); experiment: analogous AlphaLISA protocol with mouse FcRn
T5 construct: construct not described
T5 sequence (looked up): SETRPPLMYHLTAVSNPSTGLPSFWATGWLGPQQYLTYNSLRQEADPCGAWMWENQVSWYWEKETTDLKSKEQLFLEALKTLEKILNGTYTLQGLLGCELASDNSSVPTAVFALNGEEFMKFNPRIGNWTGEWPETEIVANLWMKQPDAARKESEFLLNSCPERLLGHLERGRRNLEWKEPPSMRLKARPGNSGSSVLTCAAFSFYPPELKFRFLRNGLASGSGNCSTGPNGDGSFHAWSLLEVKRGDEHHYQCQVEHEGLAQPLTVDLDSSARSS
T5 sequence (b2m, looked up): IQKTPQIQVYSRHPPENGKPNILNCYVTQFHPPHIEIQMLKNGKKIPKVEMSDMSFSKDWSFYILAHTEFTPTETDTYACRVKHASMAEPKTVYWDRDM
Protocol: (§3) FcRn Binding Assays—The ability of the activatable immunocytokines to bind to FcRn receptor was performed following manufacturer's instructions using the AlphaLISA FcRn Human Binding kit, Perkin Elmer, Cat #AL3095C. An analogous protocol was performed husing mouse FcRn.

[10] = target: T6, human FcRn (AlphaLISA FcRn Human Binding kit, Perkin Elmer AL3095C) (human, UniProt P55899 24-297; P61769 21-119, limits assumed); experiment: AlphaLISA FcRn Human Binding kit (competition)
T6 construct: kit reagent, construct not described
Protocol: as §3

[11] = target: T7, recombinant biotinylated PD1/CD279 protein (Biolegend 789406) (human, UniProt Q15116 25-167, limits assumed, biotinylated); experiment: ELISA, test molecule coated, biotinylated PD-1 titrated, streptavidin-HRP
T7 construct: also called human PD1
Protocol: Plates were then washed four times with 100 μl of PBS-0.2% Tween20 (wash buffer). […] Plates were then washed four times with 100 μl of wash buffer. […] Plates were then washed four times with wash buffer. […] Plates were then washed four times with 100 μl of wash buffer. Fifty microliters of TMB substrate reagent (#CL07, Merck, Buchs, Switzerland) were added to each well and incubated at 37° C. during 5 min. After 5 min at 37° C., Horseradish peroxidase reaction was stopped by adding 50 μl/well of 0.5M H₂SO₄ stop solution. ELISA signal was then measured at 450 nm on an EnSpire plate reader from Perkin Elmer (Schwerzenbach, Switzerland).

mouse CD64 = target: T8, mouse CD64 (mouse, UniProt P26151 25-297, limits assumed); experiment: ELISA, analogous protocol with mouse CD64
T8 construct: construct not described; also called mouse FcgR I (CD64)
T8 sequence (looked up): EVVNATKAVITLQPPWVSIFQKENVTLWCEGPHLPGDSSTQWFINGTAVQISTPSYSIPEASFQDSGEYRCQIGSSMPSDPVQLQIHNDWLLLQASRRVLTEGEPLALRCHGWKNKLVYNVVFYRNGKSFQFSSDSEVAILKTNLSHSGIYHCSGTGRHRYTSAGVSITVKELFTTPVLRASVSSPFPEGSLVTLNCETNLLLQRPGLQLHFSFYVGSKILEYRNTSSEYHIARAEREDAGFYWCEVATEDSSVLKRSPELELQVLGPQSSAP

B1: CMP-151 (ligand)
chain: APTSSSTKKTQLQLEHLLLDLQKILNGINNYKNPKLTR[Nle]L[hSer][Yn3]KF[Ygp][Nle]PKKATELKHLQCLEEELKPLEEVL[hSer]LAQSKNFHLRPRDLISNINVIVLELKGSETTF[hSer]CEYADETATIVEFLNRWITFSQSIISTLT
modifications: disulfide 58-105; bridge N-23; not fully specified (bridges)
Kd [1]: 65.4 nM
Average EC50, pSTAT5 assay in pan T cells, intact molecule [2]: 28.2 nM

B2: CMP-145 (ligand)
chain: APTSSSTKKTQLQLEHLLLDLQKILNGINNYKNPKLTR[Nle]L[hSer][Yn3]KF[Ygp][Nle]PKKATELKHLQCLEEELKPLEEVL[hSer]LAQSKNFHLRPRDLISNINVIVLELKGSETTF[hSer]CEYADETATIVEFLNRWITFSQSIISTLT
modifications: disulfide 58-105; not fully specified (residue 23); also: branched 27x PEG chains on the attached KKPLGLAG peptide, places not given here
Kd [3]: 1830 nM
koff [4]: 0.00117 s⁻¹

B3: CMP-168 (ligand)
chain: APTSSSTKKTQLQLEHLLLDLQEILNGINNYKNPKLTR[Nle]L[hSer][Yn3]KF[Ygp][Nle]PKKATELKHLQCLEEELKPLEEVL[hSer]LAQSKNFHLRPRDLISNINVIVLELKGSETTF[hSer]CEYADETATIVEFLNRWITFSQSIISTLT
modifications: disulfide 58-105 (inferred); bridge 9-23; not fully specified (residue 23, bridges)
Kd [5]: 25100 nM
koff [6]: 0.0721 s⁻¹
kon [6]: 2880 M⁻¹ s⁻¹
Kd [4]: 136 nM
koff [4]: 0.0022 s⁻¹
kon [4]: 16200 M⁻¹ s⁻¹
Average EC50, pSTAT5 assay in pan T cells, intact molecule [7]: 144 nM

B4: LZM-009 (antibody, human IgG4 S228P, kappa)
heavy: not shown
light: EIVLTQSPATLSLSPGERATISCRASKGVSTSGYSYLHWYQQKPGQAPRLLIYLASYLESGVPARFSGSGSGTDFTLTISSLEPEDFATYYCQHSRELPLTFGTGTKVEIKRTVAAPSVFIFPPSDEQLKSGTASVVCLLNNFYPREAKVQWKVDNALQSGNSQESVTEQDSKDSTYSLSSTLTLSKADYEKHKVYACEVTHQGLSSPVTKSFNRGEC
notes: unconjugated anti-PD-1 IgG4; also called LZM-009 Intact
Mean EC50, PD1/PD-L1 blockade (NFAT-RE luciferase reporter) [8]: 7.34 nM
EC50 [9]: 0.32 nM
EC50 (mouse FcRn): 0.77 nM
IC50 [10]: 5.79 nM
EC50 [11]: 0.05 nM
EC50 (mouse CD64): 554 nM
